Assay results reported in article PMC9044722.

Key:
[1] = target: His-CRM1 recombinant protein (UniProt O14980); test: SPR; without TLNC1; conditions: natural protein; chains chain; remark: other sources report otherwise
[2] = target: His-CRM1 recombinant protein (UniProt O14980); test: SPR; with TLNC1 (lncRNA); conditions: natural protein; chains chain; remark: other sources report otherwise

Chain of UniProt O14980 (O14980 whole entry): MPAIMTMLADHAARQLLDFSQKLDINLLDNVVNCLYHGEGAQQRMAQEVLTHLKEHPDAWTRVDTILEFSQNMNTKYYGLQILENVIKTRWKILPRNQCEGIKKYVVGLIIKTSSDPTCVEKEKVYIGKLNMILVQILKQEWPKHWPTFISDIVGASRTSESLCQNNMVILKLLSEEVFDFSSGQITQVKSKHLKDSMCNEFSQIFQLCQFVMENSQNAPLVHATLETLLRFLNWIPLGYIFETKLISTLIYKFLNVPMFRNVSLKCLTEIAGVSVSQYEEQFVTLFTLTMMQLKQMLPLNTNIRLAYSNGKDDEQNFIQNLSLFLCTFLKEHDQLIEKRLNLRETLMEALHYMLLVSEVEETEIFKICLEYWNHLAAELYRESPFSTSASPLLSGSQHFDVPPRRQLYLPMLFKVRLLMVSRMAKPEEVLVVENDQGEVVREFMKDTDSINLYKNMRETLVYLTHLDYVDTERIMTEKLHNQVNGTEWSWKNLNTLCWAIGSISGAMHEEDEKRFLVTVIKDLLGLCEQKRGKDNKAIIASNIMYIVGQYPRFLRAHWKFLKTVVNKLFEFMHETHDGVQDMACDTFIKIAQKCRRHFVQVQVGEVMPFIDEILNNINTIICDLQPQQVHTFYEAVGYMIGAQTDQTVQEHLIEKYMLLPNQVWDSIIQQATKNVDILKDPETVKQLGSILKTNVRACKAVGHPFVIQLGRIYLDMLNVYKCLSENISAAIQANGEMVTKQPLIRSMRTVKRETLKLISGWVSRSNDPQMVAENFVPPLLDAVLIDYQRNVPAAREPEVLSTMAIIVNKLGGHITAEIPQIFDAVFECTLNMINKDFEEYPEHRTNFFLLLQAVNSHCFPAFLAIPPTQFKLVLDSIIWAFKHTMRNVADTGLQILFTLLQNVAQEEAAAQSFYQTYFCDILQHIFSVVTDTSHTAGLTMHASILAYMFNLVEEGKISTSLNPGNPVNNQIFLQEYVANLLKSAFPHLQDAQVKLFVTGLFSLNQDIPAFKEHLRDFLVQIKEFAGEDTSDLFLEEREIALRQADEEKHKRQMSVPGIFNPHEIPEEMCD

Kd [1]: 181 nM
Kd [2]: 31.6 nM
Substance: His-TPR recombinant protein, P12270 1-2363
